These results are taken from paper PMC6739308 (Scientific Reports, 2019).

The test has as its target T1, GST-p53 fusion protein (UniProt P04637 1-393).
T1 construct: p53 fused to GST
As to the kind of experiment: pull-down; 10 μl GST beads bound with 2 μg of GST or GST-p53, purified Flag-tagged SMG7 proteins in solution; binding buffer BC100 with 1 μg/μl BSA, overnight at 4 °C, five washes, western blot. The note with it: both partners purified. In general terms: In western blotting, separated proteins are transferred to a membrane and probed.

T1 sequence (P04637 whole entry, the tested form may be a part): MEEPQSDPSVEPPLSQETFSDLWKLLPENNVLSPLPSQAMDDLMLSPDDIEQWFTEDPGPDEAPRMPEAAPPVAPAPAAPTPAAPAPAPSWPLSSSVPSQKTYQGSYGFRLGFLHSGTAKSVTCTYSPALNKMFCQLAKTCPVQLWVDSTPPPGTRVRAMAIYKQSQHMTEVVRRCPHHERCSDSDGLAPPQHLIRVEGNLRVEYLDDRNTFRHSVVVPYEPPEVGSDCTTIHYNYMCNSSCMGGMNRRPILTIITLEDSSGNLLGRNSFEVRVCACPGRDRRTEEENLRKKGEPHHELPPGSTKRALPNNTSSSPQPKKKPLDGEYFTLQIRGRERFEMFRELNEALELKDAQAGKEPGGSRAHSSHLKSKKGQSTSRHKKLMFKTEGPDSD

B1: purified FH-SMG7 C-terminal fragment 815–1091aa (domain or fragment, UniProt Q92540-2 815-1091, looked up)
chain: PSEVKVPEFYWDSSYSMADNRSVMAQQANIDRRGKRSPGVFRPEQDPVPRMPFEKSLLEKPSELMSHSSSFLSLTGFSLNQERYPNNSMFNEVYGKNLTSSSKAELSPSMAPQETSLYSLFEGTPWSPSLPASSDHSTPASQSPHSSNPSSLPSSPPTHNHNSVPFSNFGPIGTPDNRDRRTADRWKTDKPAMGGFGIDYLSATSSSESSWHQASTPSGTWTGHGPSMEDSSAVLMESLKSIWSSSMMHPGPSALEQLLMQQKQKQQRGQGTMNPPH
notes: numbers count on a form of 1091 residues; source: purified; not shown: Flag, N-terminal, kept; HA, N-terminal, kept
For B1, the binding result was “binds”.
